# In publication PMC2175248:
# Molecular target: myc–E4orf4 (adenovirus 2 (Ad2))
# Assay: co-IP
substance,measurement,value
v-src (from UniProt P00524 1-526) (enzyme),percent of v-src of the P2 fraction recovered in myc–E4orf4 immune complexes,< 10%
